Laboratory results: article PMC3085348 (European journal of immunology, 2011)

T1: RTL340 (DR2/MBP-85-99), biotinylated version (human, DRA*01:01/DRB1*15:01, biotin on the Bir-A tag)
T1 chain 1: ENPVVHFFKNIVTPR
T1 chain 2: not shown
T1 chain 3: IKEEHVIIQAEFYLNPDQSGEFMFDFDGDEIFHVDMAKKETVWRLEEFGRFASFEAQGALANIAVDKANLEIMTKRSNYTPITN

B1: Fab 3A3 (Fab, V domains shown)
VH: QVQLQESGGGLVKPGGSLRLSCAASGFTFSSYSMNWVRQAPGKGLEWVSSISSSSSYIYYADSVKGRFTISRDNAKNSLYLQMNSLRAEDTAVYYCARVRGHRYYYDSSGYYSSDYYYYYGMDVWGQGTTVTVSS
VL: DIQLTQSPSSVSASVGDRVTITCRASQVISSWLAWYQQKPGKAPKLLISTASSLQSGVPPRFSGSGSGTDFTLTITSLQPEDFATYYCQQANSFPLTFGQGTKVEIK
B2: Fab 1F11 (Fab, V domains shown)
VH: QLQLQESGPGLVKPSETLSLTCTVSGVSISSRSGHWGWVRQPPGKGLEWIGSISYSGSTYYNPSLKSRVTISVDTSKNQLSLKLSSVTAADTAVYYCARESHPAAALVGWGQGTLVTVSS
VL: ETTLTQSPGTLSLSPGERATLSCRASQSIINSHLAWYQQKPGQAPRLLIYGASSRATGIPDRFSGGGSGTDFTLTITRLETEDFALYFCQQYGTSPLTFGGGTRVETK
B3: Fab 2E4 (Fab, V domains shown)
VH: EVQLVESGAEVKKPGASVKVSCKASGYTFTSYYMHWVRQAPGQGLEWMGIINPSGGSTSYAQKFQGRVTMTRDTSTSTVYMELSSLRSEDTAVYYCAREGDNYYGDAFDIWGQGTMVTVSS
VL: EIVLTQSPATLSLSPGERATLSCRASQSVSSYLAWYQQKPGQAPRLLIYDASNRATGIPARFSGSGSGTDFTLTISSLEPEDFAVYYCQQRSNWPPSYTFGQGTKLEIK
B4: Fab 2C3 (Fab, V domains shown)
VH: QVQLVQSGGGVVQPGRSLRLSCAASGFTFSSYAMHWVRQAPGKGLEWVAVISYDGSNKYYADSVKGRFTISRDNSKNTLYLQMNSLRAEDTAVYYCARDRSFWSGYYIINYYYYGMDVWGQGTTVTVSS
VL: DVVMTQSPLSLPVTPGEPASISCRSSQSLLHSDGNNYLDWYLQKPGQSPQLLIYLGSNRASGVPDRFSGSGSGTDFTLKISRVEPEDVGVYYCMQALHIPLTFGQGTRLEIK

What was measured:
[1] = target: RTL342m (α1β1 domains of DR2 linked to mouse MOG-35-55 peptide) (human HLA-DR2 (DRA*01:01/DRB1*15:01) …, UniProt Q61885;IMGT); assay: ELISA
[2] = target: T1, RTL340 (DR2/MBP-85-99), biotinylated …; assay: ELISA

| Binder | fold reduction in ELISA binding to RTL342m compared to RTL1000 [1] [fold] | binding result [2] |
| --- | --- | --- |
| B1 | 5 |  |
| B2 | 5 |  |
| B3 | 2 |  |
| B4 |  | no binding |
